According to patent publication US20240270846A1 (published 2024):

B1: CE115HA000 Q50I one-arm antibody (antibody, human IgG1, kappa, L234A L235A, N297A, name in Kabat numbering)
heavy: QVQLVESGGGVVQPGRSLRLSCAASGFTFSNAWMHWVRQAPGKGLEWVAIIKAKSNNYATYYAESVKGRFTISRDDSKNSLYLQMNSLKTEDTAVYYCRYVHYGAYYGVDAWGQGTTVTVSSASTKGPSVFPLAPSSKSTSGGTAALGCLVKDYFPEPVTVSWNSGALTSGVHTFPAVLQSSGLYSLSSVVTVPSSSLGTQTYICNVNHKPSNTKVDKKVEPKSCDKTHTCPPCPAPEAAGGPSVFLFPPKPKDTLMISRTPEVTCVVVDVSHEDPEVKFNWYVDGVEVHNAKTKPREEQYASTYRVVSVLTVLHQDWLNGKEYKCKVSNKALPAPIEKTISKAKGQPREPQVYTLPPSRCELTKNQVSLSCAVKGFYPSDIAVEWESNGQPENNYKTTPPVLDSDGSFFLVSKLTVDKSRWQQGNVFSCSVMHEALHNHYTQKSLSLSPDYKDDDDK
chain: EPKSSDKTHTCPPCPAPELLGGPSVFLFPPKPKDTLMISRTPEVTCVVVDVSHEDPEVKFNWYVDGVEVHNAKTKPREEQYNSTYRVVSVLTVLHQDWLNGKEYKCKVSNKALPAPIEKTISKAKGQPREPQVCTLPPSRDELTKNQVSLWCLVKGFYPSDIAVEWESNGQPENNYKTTPPVLDSDGSFFLYSKLTVDKSRWQQGNVFSCSVMHEALHNRYTQKSLSLSP
light: DIVMTQSPLSLPVTPGEPASISCRSSQSLVHSNRNTYLHWYQQKPGQAPRLLIYKVSNRFSGVPDRFSGSGSGTDFTLKISRVEAEDVGVYYCGQGTQVPYTFGQGTKLEIKRTVAAPSVFIFPPSDEQLKSGTASVVCLLNNFYPREAKVQWKVDNALQSGNSQESVTEQDSKDSTYSLSSTLTLSKADYEKHKVYACEVTHQGLSSPVTKSFNRGEC
notes: one-arm antibody
B2: CE115HA000 Q50L one-arm antibody (antibody, human IgG1, kappa, L234A L235A, N297A, name in Kabat numbering)
heavy: QVQLVESGGGVVQPGRSLRLSCAASGFTFSNAWMHWVRQAPGKGLEWVALIKAKSNNYATYYAESVKGRFTISRDDSKNSLYLQMNSLKTEDTAVYYCRYVHYGAYYGVDAWGQGTTVTVSSASTKGPSVFPLAPSSKSTSGGTAALGCLVKDYFPEPVTVSWNSGALTSGVHTFPAVLQSSGLYSLSSVVTVPSSSLGTQTYICNVNHKPSNTKVDKKVEPKSCDKTHTCPPCPAPEAAGGPSVFLFPPKPKDTLMISRTPEVTCVVVDVSHEDPEVKFNWYVDGVEVHNAKTKPREEQYASTYRVVSVLTVLHQDWLNGKEYKCKVSNKALPAPIEKTISKAKGQPREPQVYTLPPSRCELTKNQVSLSCAVKGFYPSDIAVEWESNGQPENNYKTTPPVLDSDGSFFLVSKLTVDKSRWQQGNVFSCSVMHEALHNHYTQKSLSLSPDYKDDDDK
chain: EPKSSDKTHTCPPCPAPELLGGPSVFLFPPKPKDTLMISRTPEVTCVVVDVSHEDPEVKFNWYVDGVEVHNAKTKPREEQYNSTYRVVSVLTVLHQDWLNGKEYKCKVSNKALPAPIEKTISKAKGQPREPQVCTLPPSRDELTKNQVSLWCLVKGFYPSDIAVEWESNGQPENNYKTTPPVLDSDGSFFLYSKLTVDKSRWQQGNVFSCSVMHEALHNRYTQKSLSLSP
light: DIVMTQSPLSLPVTPGEPASISCRSSQSLVHSNRNTYLHWYQQKPGQAPRLLIYKVSNRFSGVPDRFSGSGSGTDFTLKISRVEAEDVGVYYCGQGTQVPYTFGQGTKLEIKRTVAAPSVFIFPPSDEQLKSGTASVVCLLNNFYPREAKVQWKVDNALQSGNSQESVTEQDSKDSTYSLSSTLTLSKADYEKHKVYACEVTHQGLSSPVTKSFNRGEC
notes: one-arm antibody
B3: CE115HA000 Q50S one-arm antibody (antibody, human IgG1, kappa, L234A L235A, N297A, name in Kabat numbering)
heavy: QVQLVESGGGVVQPGRSLRLSCAASGFTFSNAWMHWVRQAPGKGLEWVASIKAKSNNYATYYAESVKGRFTISRDDSKNSLYLQMNSLKTEDTAVYYCRYVHYGAYYGVDAWGQGTTVTVSSASTKGPSVFPLAPSSKSTSGGTAALGCLVKDYFPEPVTVSWNSGALTSGVHTFPAVLQSSGLYSLSSVVTVPSSSLGTQTYICNVNHKPSNTKVDKKVEPKSCDKTHTCPPCPAPEAAGGPSVFLFPPKPKDTLMISRTPEVTCVVVDVSHEDPEVKFNWYVDGVEVHNAKTKPREEQYASTYRVVSVLTVLHQDWLNGKEYKCKVSNKALPAPIEKTISKAKGQPREPQVYTLPPSRCELTKNQVSLSCAVKGFYPSDIAVEWESNGQPENNYKTTPPVLDSDGSFFLVSKLTVDKSRWQQGNVFSCSVMHEALHNHYTQKSLSLSPDYKDDDDK
chain: EPKSSDKTHTCPPCPAPELLGGPSVFLFPPKPKDTLMISRTPEVTCVVVDVSHEDPEVKFNWYVDGVEVHNAKTKPREEQYNSTYRVVSVLTVLHQDWLNGKEYKCKVSNKALPAPIEKTISKAKGQPREPQVCTLPPSRDELTKNQVSLWCLVKGFYPSDIAVEWESNGQPENNYKTTPPVLDSDGSFFLYSKLTVDKSRWQQGNVFSCSVMHEALHNRYTQKSLSLSP
light: DIVMTQSPLSLPVTPGEPASISCRSSQSLVHSNRNTYLHWYQQKPGQAPRLLIYKVSNRFSGVPDRFSGSGSGTDFTLKISRVEAEDVGVYYCGQGTQVPYTFGQGTKLEIKRTVAAPSVFIFPPSDEQLKSGTASVVCLLNNFYPREAKVQWKVDNALQSGNSQESVTEQDSKDSTYSLSSTLTLSKADYEKHKVYACEVTHQGLSSPVTKSFNRGEC
notes: one-arm antibody
B4: CE115HA000 Q50K one-arm antibody (antibody, human IgG1, kappa, L234A L235A, N297A, name in Kabat numbering)
heavy: QVQLVESGGGVVQPGRSLRLSCAASGFTFSNAWMHWVRQAPGKGLEWVAKIKAKSNNYATYYAESVKGRFTISRDDSKNSLYLQMNSLKTEDTAVYYCRYVHYGAYYGVDAWGQGTTVTVSSASTKGPSVFPLAPSSKSTSGGTAALGCLVKDYFPEPVTVSWNSGALTSGVHTFPAVLQSSGLYSLSSVVTVPSSSLGTQTYICNVNHKPSNTKVDKKVEPKSCDKTHTCPPCPAPEAAGGPSVFLFPPKPKDTLMISRTPEVTCVVVDVSHEDPEVKFNWYVDGVEVHNAKTKPREEQYASTYRVVSVLTVLHQDWLNGKEYKCKVSNKALPAPIEKTISKAKGQPREPQVYTLPPSRCELTKNQVSLSCAVKGFYPSDIAVEWESNGQPENNYKTTPPVLDSDGSFFLVSKLTVDKSRWQQGNVFSCSVMHEALHNHYTQKSLSLSPDYKDDDDK
chain: EPKSSDKTHTCPPCPAPELLGGPSVFLFPPKPKDTLMISRTPEVTCVVVDVSHEDPEVKFNWYVDGVEVHNAKTKPREEQYNSTYRVVSVLTVLHQDWLNGKEYKCKVSNKALPAPIEKTISKAKGQPREPQVCTLPPSRDELTKNQVSLWCLVKGFYPSDIAVEWESNGQPENNYKTTPPVLDSDGSFFLYSKLTVDKSRWQQGNVFSCSVMHEALHNRYTQKSLSLSP
light: DIVMTQSPLSLPVTPGEPASISCRSSQSLVHSNRNTYLHWYQQKPGQAPRLLIYKVSNRFSGVPDRFSGSGSGTDFTLKISRVEAEDVGVYYCGQGTQVPYTFGQGTKLEIKRTVAAPSVFIFPPSDEQLKSGTASVVCLLNNFYPREAKVQWKVDNALQSGNSQESVTEQDSKDSTYSLSSTLTLSKADYEKHKVYACEVTHQGLSSPVTKSFNRGEC
notes: one-arm antibody

target: T1, CD3 epsilon homodimer protein (UniProt P07766 23-126); assay: SPR Biacore T200, antibody over immobilised CD3e homodimer;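 further: CD3 epsilon homodimer amine-coupled on a CM4 chip, run at 25 °C in HBS-EP+, Z = bound amount of each single-residue H chain variant over that of the parent antibody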
T1 construct: also called CD3 (CD3 epsilon)
T1 sequence (P07766 23-126): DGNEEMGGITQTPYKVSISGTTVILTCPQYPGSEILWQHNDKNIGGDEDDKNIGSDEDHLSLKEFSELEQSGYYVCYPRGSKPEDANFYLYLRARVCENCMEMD

In order of rising “ratio of amounts bound (Z=Y/X vs CE115HA000)” value:
1. B2  0.23
2. B3  0.24
3. B4  0.33
4. B1  0.4
